Here are results for 11 molecules from patent US20240262923A1 (Sanofi, published 2024).

Assay [1] concerns the target T1, human PD-1 expressed on cells (300.19 pre-B cells, PD-1 NFAT-luc2 Jurkat cells, primary T-cells) (human, UniProt Q15116 25-288).
T1 construct: GenBank NP 005009.2 printed; also called hPD-1; Pre-B hPD-1
Description: flow cytometry on 300.19 pre-B cells.

Assay [2] has as its target T2, cynomolgus monkey PD-1 expressed on 300.19 pre-B cells (cynomolgus monkey, UniProt B0LAJ3 25-288).
T2 construct: also called cyPD-1; Pre-B cyPD-1
Description: flow cytometry on 300.19 pre-B cells. Background: In flow cytometry, cells or beads pass a laser one at a time.

For assay [3], the target named is T3, cynomolgus monkey 4-1BB expressed on 300.19 pre-B cells (cynomolgus monkey, UniProt A9YYE7 24-254).
T3 construct: whole, on cells; also called cy4-1BB; Pre-B cy4-1BB
In words: flow cytometry on 300.19 pre-B cells, cy4-1BB against h4-1BB.

In assay [4] the target is T4, cynomolgus monkey 4-1BB (SPR analyte) (cynomolgus monkey, UniProt A9YYE7 24-186).
T4 construct: also called cy4-1BB
T4 sequence: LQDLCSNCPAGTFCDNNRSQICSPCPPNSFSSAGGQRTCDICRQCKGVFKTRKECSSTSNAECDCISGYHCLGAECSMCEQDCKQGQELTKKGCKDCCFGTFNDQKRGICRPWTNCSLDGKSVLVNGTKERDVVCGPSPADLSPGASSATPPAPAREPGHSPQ
Description: SPR, KD on cy4-1BB against KD on h4-1BB.

Assay [5] concerns the target T5, human PD-1 (SPR analyte) (human, UniProt Q15116 25-167, limits assumed).
T5 construct: Soluble analyte in SPR; also called hPD-1
Description: SPR (Biacore 8K), binder captured on anti-Fc chip, target as analyte, 1:1 model. A general note: In SPR one partner is held on a chip, and binding of the other changes the refractive index at the surface.

For assay [6], the target named is T3, cynomolgus monkey 4-1BB expressed on …. Description: flow cytometry on 300.19 pre-B cells.
The target is the same in assay [7]. Description: flow cytometry on 300.19 pre-B cells, cy4-1BB.
In assay [8] the target is T1, human PD-1 expressed on cells (300.19 …). In words: cell-based or functional assay.
Assay [9] addresses T4, cynomolgus monkey 4-1BB (SPR analyte). Description: SPR (Biacore 8K), binder captured on anti-Fc chip, target as analyte, 1:1 model.
Assay [10] has as its target T1, human PD-1 expressed on cells (300.19 …). Description: flow cytometry on PD-1+ Jurkat T-cells.
Assay [11] concerns the target T6, cynomolgus monkey PD-1 (SPR analyte) (cynomolgus monkey, UniProt B0LAJ3 25-170).
T6 construct: also called cyPD-1
In words: SPR, KD on cyPD-1 against KD on hPD-1.

The target in assay [12] is T2, cynomolgus monkey PD-1 expressed on …. Description: flow cytometry on 300.19 pre-B cells, cyPD-1 against hPD-1.
For assay [13], the target named is T6, cynomolgus monkey PD-1 (SPR analyte). Description: SPR (Biacore 8K), binder captured on anti-Fc chip, target as analyte, 1:1 model.
Assay [14] concerns the target T5, human PD-1 (SPR analyte). Described as above. This is another data set of the same source.
Assay [15] deals with T3, cynomolgus monkey 4-1BB expressed on …. Description: flow cytometry on 300.19 pre-B cells, cy4-1BB, against Optimized Construct #3.
Assay [16] deals with T7, human His-tagged 4-1BB recombinant protein (human, UniProt Q07011 24-186).
T7 construct: also called human 4-1BB; h4-1BB; not shown: His tag
Description: ELISA binding on 4-1BB-his, bivalent monoparatopic Fab-like constructs.

The target of the next assay is human CD40 (human, UniProt P25942 21-193). In words: binding assay (FIG. 2), bivalent Fab-like.
human CD40, sequence (P25942 21-193 limits assumed): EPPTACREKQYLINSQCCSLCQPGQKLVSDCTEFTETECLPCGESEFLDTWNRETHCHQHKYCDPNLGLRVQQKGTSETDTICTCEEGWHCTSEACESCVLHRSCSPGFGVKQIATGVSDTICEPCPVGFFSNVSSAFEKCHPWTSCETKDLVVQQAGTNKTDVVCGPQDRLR
The target in another assay is T8, human OX40 (human, UniProt P43489 29-216).
T8 construct: also called hOX40
T8 sequence (looked up): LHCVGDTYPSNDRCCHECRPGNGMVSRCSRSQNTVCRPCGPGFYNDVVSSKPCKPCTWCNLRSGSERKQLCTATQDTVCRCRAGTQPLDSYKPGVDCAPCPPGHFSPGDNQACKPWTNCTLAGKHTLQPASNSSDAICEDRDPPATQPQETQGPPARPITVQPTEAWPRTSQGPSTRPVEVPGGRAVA
Description: binding assay (FIG. 2), bivalent Fab-like.

Assay [17] addresses T9, extracellular domain of human 4-1BB (amino acid residues 24-186 of SEQ ID NO: 13) (human, UniProt Q07011 24-186).
T9 construct: Used for X-ray crystallography
Description: X-ray crystallography of the complex.

The target in assay [18] is T7, human His-tagged 4-1BB recombinant …. Description: binding assay (FIG. 2), bivalent monoparatopic Fab-like.

Read-outs that look alike come from different tables or passages of the source.

T6 sequence (B0LAJ3 entry or part of it limits assumed): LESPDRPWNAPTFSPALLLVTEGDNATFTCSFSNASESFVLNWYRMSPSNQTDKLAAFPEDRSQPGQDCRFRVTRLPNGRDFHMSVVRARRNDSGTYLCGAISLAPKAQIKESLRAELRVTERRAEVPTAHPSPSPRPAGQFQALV
T5 sequence (Q15116 25-167 limits assumed): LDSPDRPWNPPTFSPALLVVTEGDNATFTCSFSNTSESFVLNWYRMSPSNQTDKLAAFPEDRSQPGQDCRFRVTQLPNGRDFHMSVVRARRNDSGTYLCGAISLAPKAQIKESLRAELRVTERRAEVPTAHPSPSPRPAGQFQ
T2 sequence (B0LAJ3 entry or part of it limits assumed): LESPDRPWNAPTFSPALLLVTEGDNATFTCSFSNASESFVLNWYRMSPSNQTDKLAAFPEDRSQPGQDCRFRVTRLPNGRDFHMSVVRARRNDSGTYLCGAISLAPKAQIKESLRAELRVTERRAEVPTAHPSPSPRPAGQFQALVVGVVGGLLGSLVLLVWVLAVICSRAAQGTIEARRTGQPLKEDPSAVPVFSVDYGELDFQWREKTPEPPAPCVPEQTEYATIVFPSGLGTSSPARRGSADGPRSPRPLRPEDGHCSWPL
T1 sequence (Q15116 25-288 limits assumed): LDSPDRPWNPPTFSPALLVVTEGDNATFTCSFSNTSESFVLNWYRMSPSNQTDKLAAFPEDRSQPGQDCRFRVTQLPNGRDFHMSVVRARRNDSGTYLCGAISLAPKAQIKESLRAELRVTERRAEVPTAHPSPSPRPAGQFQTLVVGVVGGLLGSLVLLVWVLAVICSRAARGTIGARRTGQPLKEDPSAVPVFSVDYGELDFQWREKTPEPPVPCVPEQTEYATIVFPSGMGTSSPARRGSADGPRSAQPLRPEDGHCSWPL

B1: Optimized Construct #3 (bispecific antibody)
heavy: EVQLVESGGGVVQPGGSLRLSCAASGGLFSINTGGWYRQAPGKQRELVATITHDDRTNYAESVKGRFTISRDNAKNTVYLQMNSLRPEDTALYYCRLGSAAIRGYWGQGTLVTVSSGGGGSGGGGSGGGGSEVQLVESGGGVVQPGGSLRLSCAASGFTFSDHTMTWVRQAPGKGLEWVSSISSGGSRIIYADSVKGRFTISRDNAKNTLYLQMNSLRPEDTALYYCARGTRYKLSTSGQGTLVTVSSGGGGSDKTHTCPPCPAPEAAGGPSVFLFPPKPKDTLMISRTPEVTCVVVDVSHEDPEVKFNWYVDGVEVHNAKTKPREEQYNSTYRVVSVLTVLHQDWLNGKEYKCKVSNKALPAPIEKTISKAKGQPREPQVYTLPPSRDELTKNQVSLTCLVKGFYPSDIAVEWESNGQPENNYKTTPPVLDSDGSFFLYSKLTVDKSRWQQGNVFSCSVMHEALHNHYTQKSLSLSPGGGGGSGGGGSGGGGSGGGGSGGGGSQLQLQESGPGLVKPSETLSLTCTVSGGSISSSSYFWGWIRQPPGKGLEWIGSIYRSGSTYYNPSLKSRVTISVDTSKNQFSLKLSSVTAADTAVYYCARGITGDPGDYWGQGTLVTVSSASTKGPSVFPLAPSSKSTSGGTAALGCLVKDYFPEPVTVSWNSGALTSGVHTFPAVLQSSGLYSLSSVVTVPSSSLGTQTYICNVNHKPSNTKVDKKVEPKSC
light: EIVLTQSPATLSLSPGERATLSCGASQSVPINFLAWYQQKPGLAPRLLIYEASSRHTGIPDRFSGSGSGTDFTLTISRLEPEDFAVYYCGQYGSSPYTFGQGTKLEIKRTVAAPSVFIFPPSDEQLKSGTASVVCLLNNFYPREAKVQWKVDNALQSGNSQESVTEQDSKDSTYSLSSTLTLSKADYEKHKVYACEVTHQGLSSPVTKSFNRGEC
notes: also called Optimized Construct #3 (unmasked); naked
Take B1: the EC50 is 1.4 nM in assay [1], 1.45 nM in assay [2], 0.91 nM in assay [6] and 0.5 nM in assay [10]. For the same molecule, the “Ratio EC50 cy/h” value in [3] amounted to 0.3 fold; in assay [12], 1.04 fold. In addition, the “Ratio KD cyno/human” value is 1.9 fold in assay [4] and 2 fold in assay [11]. Further, the Kd is 4.54 nM with human PD-1 (SPR analyte) [5], 21.1 nM in [9], 14.9 nM in assay [13] and 7.29 nM with human PD-1 (SPR analyte) [14]. Also, the “masking efficacy (masked EC50/naked EC50)” value in assay [7] turned out to be 1 fold. Besides, in [8], the “EC50 value (nM), PD-1 reporter assay” value stood at 1.39 nM.

B2: MC1 (conditionally-active, masked Optimized Construct #3; MM1 and cleavable linker #1) (bispecific antibody)
heavy: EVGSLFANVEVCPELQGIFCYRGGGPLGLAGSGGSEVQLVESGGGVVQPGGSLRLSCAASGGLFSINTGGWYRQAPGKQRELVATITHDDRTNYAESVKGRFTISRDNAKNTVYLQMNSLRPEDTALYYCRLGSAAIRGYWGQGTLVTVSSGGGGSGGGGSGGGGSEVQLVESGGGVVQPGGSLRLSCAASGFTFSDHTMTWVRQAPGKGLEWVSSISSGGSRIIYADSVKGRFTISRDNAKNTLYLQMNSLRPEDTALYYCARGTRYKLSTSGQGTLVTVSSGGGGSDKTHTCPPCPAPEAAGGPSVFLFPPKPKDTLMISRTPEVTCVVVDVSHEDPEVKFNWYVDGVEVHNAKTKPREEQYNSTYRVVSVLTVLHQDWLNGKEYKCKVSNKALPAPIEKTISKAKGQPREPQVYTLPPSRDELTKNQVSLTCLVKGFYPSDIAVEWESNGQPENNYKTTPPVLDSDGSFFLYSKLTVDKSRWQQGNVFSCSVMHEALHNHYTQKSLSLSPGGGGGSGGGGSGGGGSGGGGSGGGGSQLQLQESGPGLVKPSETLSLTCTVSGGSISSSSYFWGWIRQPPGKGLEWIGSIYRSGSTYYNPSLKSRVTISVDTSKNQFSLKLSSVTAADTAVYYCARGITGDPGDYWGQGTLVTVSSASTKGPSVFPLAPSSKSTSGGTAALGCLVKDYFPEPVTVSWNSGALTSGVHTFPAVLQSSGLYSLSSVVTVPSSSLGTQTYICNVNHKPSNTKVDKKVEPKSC
light: B1 light
Regarding B2, the concentration giving a half-maximal response (EC50) in assay [1] is 1.65 nM; in assay [2], 1.67 nM; in [6], 6.24 nM; in assay [10] it was 0.7 nM. In addition, the “Ratio EC50 cy/h” value in [3] stood at 0.07 fold; in [12] it was 0.99 fold. Also, in assay [8], the “EC50 value (nM), PD-1 reporter assay” value was found to be 2.43 nM. In addition, the “masking efficacy (masked EC50/naked EC50)” value in assay [15] is 7 fold. Also, the “Ratio KD cyno/human” value in [11] is 2.3 fold. The Kd in [13] stood at 14.9 nM; in the assay with human PD-1 (SPR analyte) [14], 6.42 nM.

B3: MC3 (conditionally-active, masked Optimized Construct #3; MM1 and cleavable linker #2) (bispecific antibody)
heavy: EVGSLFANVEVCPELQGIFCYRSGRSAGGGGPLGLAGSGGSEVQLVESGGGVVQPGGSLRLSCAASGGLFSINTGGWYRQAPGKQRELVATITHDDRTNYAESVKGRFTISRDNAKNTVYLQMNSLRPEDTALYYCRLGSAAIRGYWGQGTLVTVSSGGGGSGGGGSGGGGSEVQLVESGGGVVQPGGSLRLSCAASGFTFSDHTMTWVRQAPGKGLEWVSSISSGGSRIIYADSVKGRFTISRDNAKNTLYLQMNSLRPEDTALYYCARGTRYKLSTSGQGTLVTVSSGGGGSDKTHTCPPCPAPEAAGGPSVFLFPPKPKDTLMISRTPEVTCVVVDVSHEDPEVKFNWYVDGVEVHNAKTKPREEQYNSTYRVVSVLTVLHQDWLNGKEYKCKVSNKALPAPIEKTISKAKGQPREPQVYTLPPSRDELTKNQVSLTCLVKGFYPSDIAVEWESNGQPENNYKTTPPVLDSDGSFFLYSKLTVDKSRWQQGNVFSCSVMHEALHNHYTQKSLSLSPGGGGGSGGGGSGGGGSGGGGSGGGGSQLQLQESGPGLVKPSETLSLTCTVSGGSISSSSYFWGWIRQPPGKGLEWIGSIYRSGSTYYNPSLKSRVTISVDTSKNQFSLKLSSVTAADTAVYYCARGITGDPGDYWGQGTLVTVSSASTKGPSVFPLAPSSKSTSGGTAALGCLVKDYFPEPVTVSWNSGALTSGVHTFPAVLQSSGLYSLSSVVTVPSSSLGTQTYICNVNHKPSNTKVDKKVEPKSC
light: B1 light
For the molecule B3, the EC50 was found to be 1.76 nM in assay [1], 1.4 nM in assay [2], 5.9 nM in assay [6] and 0.89 nM in assay [10]. Also, the figures for the “Ratio EC50 cy/h” value in assay [3] and in assay [12] were 0.23 fold and 0.8 fold, respectively. Further, the “EC50 value (nM), PD-1 reporter assay” value in assay [8] turned out to be 2.62 nM. Moreover, the “masking efficacy (masked EC50/naked EC50)” value in assay [15] amounted to 6 fold. The “Ratio KD cyno/human” value in assay [11] came out at 2 fold. For the same molecule, the Kd in assay [13] amounted to 13.4 nM; in the assay with human PD-1 (SPR analyte) [14] it was 6.73 nM.

B4: MC4 (conditionally-active, masked Optimized Construct #3; MM2 and cleavable linker #2) (bispecific antibody)
heavy: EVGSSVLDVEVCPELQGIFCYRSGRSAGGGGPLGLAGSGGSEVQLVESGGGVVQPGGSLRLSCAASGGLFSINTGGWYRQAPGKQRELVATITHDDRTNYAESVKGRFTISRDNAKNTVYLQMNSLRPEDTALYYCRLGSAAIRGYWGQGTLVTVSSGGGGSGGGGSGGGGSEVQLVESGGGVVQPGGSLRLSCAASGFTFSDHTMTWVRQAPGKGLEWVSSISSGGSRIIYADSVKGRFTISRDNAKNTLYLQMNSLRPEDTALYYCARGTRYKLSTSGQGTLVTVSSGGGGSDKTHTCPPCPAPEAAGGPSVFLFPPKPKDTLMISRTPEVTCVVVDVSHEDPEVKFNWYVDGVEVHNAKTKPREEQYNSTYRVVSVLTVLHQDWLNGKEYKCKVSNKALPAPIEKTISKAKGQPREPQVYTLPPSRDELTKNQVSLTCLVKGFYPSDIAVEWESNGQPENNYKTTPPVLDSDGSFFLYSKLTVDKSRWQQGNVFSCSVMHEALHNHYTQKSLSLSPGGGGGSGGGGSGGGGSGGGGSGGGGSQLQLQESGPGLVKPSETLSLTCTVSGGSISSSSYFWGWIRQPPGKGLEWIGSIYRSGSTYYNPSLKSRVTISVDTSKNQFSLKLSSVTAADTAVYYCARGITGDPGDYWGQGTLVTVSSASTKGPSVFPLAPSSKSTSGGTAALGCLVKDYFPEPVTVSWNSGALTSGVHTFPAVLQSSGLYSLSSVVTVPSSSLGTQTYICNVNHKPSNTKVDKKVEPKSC
light: B1 light
Consider B4, for which the concentration giving a half-maximal response (EC50) turned out to be 2.68 nM in [1], 4.8 nM in assay [2], 9.81 nM in assay [6] and 0.72 nM in [10]. Also, the “Ratio EC50 cy/h” value in [3] worked out at 1.01 fold; in [12] it was 1.79 fold. Moreover, in assay [8], the “EC50 value (nM), PD-1 reporter assay” value is 2.81 nM. Also, in assay [15], the “masking efficacy (masked EC50/naked EC50)” value was 11 fold. In [11], the “Ratio KD cyno/human” value is 2.7 fold. Besides, the results for the Kd (in assay [13]; with human PD-1 (SPR analyte) [14]) were 18.3 nM and 6.82 nM, respectively.

B5: MC2 (conditionally-active, masked Optimized Construct #3; MM2 and cleavable linker #1) (bispecific antibody)
heavy: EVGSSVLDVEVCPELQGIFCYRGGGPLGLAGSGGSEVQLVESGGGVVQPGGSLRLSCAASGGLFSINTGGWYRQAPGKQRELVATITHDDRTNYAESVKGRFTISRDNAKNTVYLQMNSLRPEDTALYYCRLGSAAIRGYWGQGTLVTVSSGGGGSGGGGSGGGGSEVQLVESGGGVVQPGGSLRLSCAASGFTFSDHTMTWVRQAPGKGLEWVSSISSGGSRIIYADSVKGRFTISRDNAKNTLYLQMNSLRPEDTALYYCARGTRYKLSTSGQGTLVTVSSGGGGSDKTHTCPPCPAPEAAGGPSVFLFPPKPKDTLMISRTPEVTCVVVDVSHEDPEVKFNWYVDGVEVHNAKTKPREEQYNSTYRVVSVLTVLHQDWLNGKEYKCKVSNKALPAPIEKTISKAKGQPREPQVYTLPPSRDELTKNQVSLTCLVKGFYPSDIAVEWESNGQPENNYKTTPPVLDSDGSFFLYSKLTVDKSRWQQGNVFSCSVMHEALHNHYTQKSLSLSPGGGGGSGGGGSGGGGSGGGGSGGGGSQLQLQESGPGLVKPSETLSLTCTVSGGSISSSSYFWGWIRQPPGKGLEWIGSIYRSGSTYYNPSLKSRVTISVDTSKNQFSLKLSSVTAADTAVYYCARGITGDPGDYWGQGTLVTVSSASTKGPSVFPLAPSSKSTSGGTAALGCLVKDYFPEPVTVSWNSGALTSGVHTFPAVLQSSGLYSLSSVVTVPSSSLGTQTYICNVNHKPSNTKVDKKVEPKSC
light: B1 light
For the molecule B5, the EC50 in assay [1] turned out to be 2.97 nM; in assay [2], 1.5 nM; in assay [6], 16.6 nM; in assay [10], 0.78 nM. Moreover, the “Ratio EC50 cy/h” value in assay [3] is 2.44 fold; in [12], 0.51 fold. In addition, in assay [8], the “EC50 value (nM), PD-1 reporter assay” value is 2.54 nM. In addition, in assay [15], the “masking efficacy (masked EC50/naked EC50)” value is 18 fold. In assay [11], the “Ratio KD cyno/human” value came out at 2.2 fold. Also, the Kd in [13] turned out to be 17.3 nM; with human PD-1 (SPR analyte) [14], 7.73 nM.

B6: anti-4-1BB clone #5a VHH, bivalent monoparatopic Fab-like construct (other)
chain 1: QVQLQESGGGWVQPGGSLRLSCAASGFAFRDFTMSWARQAPGERFEWISSINPSGGSQSYLPSVKGRFTISRDNAKNTMFLQMDNLTPEDTAVYFCARGTRYKMSTSGPGTQVTVSS
chain 2: B6 chain 1
notes: not shown: human CL (lambda) constant domain, tag if any; human IgG1 CH1 domain, HA and 6-His tags
B6: the “EC50 (read off the curve)” value in [16] is around 0.5 nM.

B7: anti-4-1BB clone #5d VHH, bivalent monoparatopic Fab-like construct (other)
chain 1: QVQLQESGGGLVQPGGSLRLSCVASGFTFANYRMSWVRQAPGKGLEWVSSIKKSGNRTTYSDSVKGRFTISRDNAKNTMFLQMDNLTPEDTAVYFCARGTRYKMSTSGPGTQVTVSS
chain 2: B7 chain 1
notes: as for B6
Consider B7, for which, in assay [16], the binding result is given as “binds”.

B8: anti-4-1BB VHH Clone #5, bivalent monoparatopic Fab-like construct (other)
chain 1: QVQLQESGGGLVQPGGSLRLSCAASGFTFSDHTMTWVRQAPGKGLEWVSSISSGGSRIIYADSVKGRFTISRDNAKNTLYLQMNNLRPEDTAVYFCARGTRYKMSTSGPGTQVTVSS
chain 2: B8 chain 1
notes: as for B6
With B8, the binding result with human CD40 and with human OX40 was “no binding” throughout. The “EC50 (read off the curve)” value in [16] is around 3 nM.

B9: anti-4-1BB clone #5 VHH (VHH)
VHH: B8 chain 1
For B9, the binding result in [17] is reported as “binds”.

B10: anti-4-1BB clone #2 VHH (VHH)
VHH: QVQLQESGGGLVQPGGSLRLSCAASGGLFSINTGGWYRQAPGKQRELVATITHDDRTNYAESVKGRFTLSRDNAKNTVYLQMNSLKPEDTAVYYCRLGSAAIRGYWGQGTQVTVSS
Turning to B10, the binding result in assay [17] is listed as “binds”.

B11: anti-4-1BB VHH Clone #2, bivalent monoparatopic Fab-like construct (other)
chain 1: B10 VHH
chain 2: B10 VHH
notes: as for B6
With B11, the values for the binding result (in the assay with human CD40; with human OX40; in assay [18]) were “no binding”, “no binding” and “binds”, respectively.

The EC50 is the concentration that produces a half-maximal response. In general, Kd refers to the free concentration of one partner at which half of the binding sites on the other are occupied at equilibrium, for simple one-to-one binding. In general, EC50 (read off the curve) refers to the midpoint of the concentration-response curve.
